Reference: the supplement of paper PMC9112550, “Optimization of the antimicrobial peptide Bac7 by deep mutational scanning” (BMC Biology, 2022)

What follows are sequences tested on Escherichia coli TOP10 (assay: shrunken log2 fold change of peptide-encoding DNA abundance (4.5 h post-induction vs induction); higher = less antimicrobial activity (less host growth inhibition)). Details: time post-induction: 4.5 h; library: site-saturation at positions 5, 18, 19, 20.
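Further: peptides expressed intracellularly from a pBAD plasmid library in pooled LB shake-flask culture, induced with 0.3% L-arabinose, DNA abundance read by NGS, three biological replicates, DESeq2 with apeglm shrinkage.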

| Sequence | shrunken log2 fold change |
| --- | --- |
| RRIRIRPPRLPRPRPRPPSAPRP | 0.369 |
| RRIRARPPRLPRPRPRPHHSPRP | -0.404 |
| RRIRDRPPRLPRPRPRPIYCPRP | 0.0039 |
| RRIRGRPPRLPRPRPRPPLCPRP | 0.616 |
| RRIRERPPRLPRPRPRPAKLPRP | -0.0209 |
| RRIRRRPPRLPRPRPRPLREPRP | 1.14 |
| RRIRRRPPRLPRPRPRPMLTPRP | 0.211 |
| RRIRIRPPRLPRPRPRPCNVPRP | -0.449 |
| RRIRARPPRLPRPRPRPTMPPRP | 0.364 |
| RRIRSRPPRLPRPRPRPYLIPRP | -0.363 |
| RRIRQRPPRLPRPRPRPVEAPRP | 0.341 |
| RRIRYRPPRLPRPRPRPSHKPRP | -1.57 |
| RRIRARPPRLPRPRPRPLMTPRP | 0.474 |
| RRIRMRPPRLPRPRPRPKCPPRP | 0.108 |
| RRIRQRPPRLPRPRPRPIENPRP | 0.219 |
| RRIRWRPPRLPRPRPRPYIRPRP | -0.359 |
| RRIRNRPPRLPRPRPRPGLFPRP | 0.0823 |
| RRIRIRPPRLPRPRPRPLKPPRP | -0.296 |
| RRIRQRPPRLPRPRPRPAKRPRP | 0.0228 |
| RRIRLRPPRLPRPRPRPPDTPRP | 0.257 |
| RRIRERPPRLPRPRPRPIFVPRP | -0.295 |
| RRIRSRPPRLPRPRPRPDATPRP | 0.816 |
| RRIRLRPPRLPRPRPRPILMPRP | 0.0581 |
| RRIRTRPPRLPRPRPRPPNFPRP | -0.0576 |
| RRIRIRPPRLPRPRPRPNPEPRP | -0.0503 |

| Sequence | shrunken log2 fold change |
| --- | --- |
| RRIRPRPPRLPRPRPRPQANPRP | -0.137 |
| RRIRPRPPRLPRPRPRPRFLPRP | 0.146 |
| RRIRYRPPRLPRPRPRPAEWPRP | 0.00902 |
| RRIRTRPPRLPRPRPRPYWIPRP | -0.0377 |
| RRIRNRPPRLPRPRPRPKWRPRP | 0.792 |
| RRIRQRPPRLPRPRPRPLQCPRP | -0.357 |
| RRIRNRPPRLPRPRPRPTIYPRP | -0.106 |
| RRIRQRPPRLPRPRPRPNAKPRP | -0.0176 |
| RRIRGRPPRLPRPRPRPMAWPRP | 0.743 |
| RRIRTRPPRLPRPRPRPSDHPRP | -0.274 |
| RRIRERPPRLPRPRPRPPQWPRP | 0.0679 |
| RRIRFRPPRLPRPRPRPLSQPRP | -0.271 |
| RRIRSRPPRLPRPRPRPLWEPRP | -0.0343 |
| RRIRPRPPRLPRPRPRPPHQPRP | 0.146 |
| RRIRIRPPRLPRPRPRPLPGPRP | -0.0346 |
| RRIRLRPPRLPRPRPRPLCTPRP | 0.0663 |
| RRIRIRPPRLPRPRPRPFALPRP | -0.178 |
| RRIRSRPPRLPRPRPRPRWQPRP | 0.166 |
| RRIRSRPPRLPRPRPRPFHMPRP | -0.365 |
| RRIRSRPPRLPRPRPRPGSVPRP | -0.0129 |
| RRIRDRPPRLPRPRPRPDREPRP | -0.0481 |
| RRIRKRPPRLPRPRPRPQCFPRP | -0.0263 |
| RRIRERPPRLPRPRPRPMLQPRP | -0.161 |
| RRIRARPPRLPRPRPRPMFDPRP | -0.101 |
| RRIRPRPPRLPRPRPRPPQFPRP | 0.297 |

| Sequence | shrunken log2 fold change |
| --- | --- |
| RRIRARPPRLPRPRPRPQLFPRP | 0.18 |
| RRIRFRPPRLPRPRPRPHHIPRP | -0.822 |
| RRIRWRPPRLPRPRPRPPYLPRP | -0.184 |
| RRIRLRPPRLPRPRPRPGTPPRP | 0.0973 |
| RRIRIRPPRLPRPRPRPRYAPRP | -0.14 |
| RRIRARPPRLPRPRPRPHHNPRP | -0.483 |
| RRIRGRPPRLPRPRPRPEKLPRP | 0.844 |
| RRIRGRPPRLPRPRPRPWCRPRP | 0.195 |
| RRIRIRPPRLPRPRPRPWKVPRP | 0.0349 |
| RRIRSRPPRLPRPRPRPLWQPRP | 0.311 |
| RRIRTRPPRLPRPRPRPIVDPRP | 0.0147 |
| RRIRWRPPRLPRPRPRPHKVPRP | -0.431 |
| RRIRDRPPRLPRPRPRPMTLPRP | 0.0841 |
| RRIRCRPPRLPRPRPRPDPPPRP | 0.52 |
| RRIRCRPPRLPRPRPRPNTWPRP | -0.539 |
| RRIRLRPPRLPRPRPRPYWYPRP | -0.542 |
| RRIRHRPPRLPRPRPRPNRCPRP | -0.259 |
| RRIRIRPPRLPRPRPRPKGDPRP | 0.424 |
| RRIRPRPPRLPRPRPRPSKQPRP | -0.116 |
| RRIRSRPPRLPRPRPRPFPLPRP | -0.886 |
| RRIRIRPPRLPRPRPRPEQDPRP | 0.0197 |
| RRIRSRPPRLPRPRPRPWRCPRP | 0.0757 |
| RRIRFRPPRLPRPRPRPQIKPRP | -0.291 |
| RRIRRRPPRLPRPRPRPHQFPRP | -0.183 |
| RRIRGRPPRLPRPRPRPEMQPRP | 1.41 |

| Sequence | shrunken log2 fold change |
| --- | --- |
| RRIRPRPPRLPRPRPRPYAYPRP | -0.192 |
| RRIRLRPPRLPRPRPRPFYEPRP | -0.426 |
| RRIRCRPPRLPRPRPRPSQTPRP | -0.338 |
| RRIRARPPRLPRPRPRPMTIPRP | -0.113 |
| RRIRVRPPRLPRPRPRPHRVPRP | 0.133 |
| RRIRARPPRLPRPRPRPKETPRP | 0.229 |
| RRIRVRPPRLPRPRPRPSKCPRP | -0.0461 |
| RRIRIRPPRLPRPRPRPIWQPRP | 0.182 |
| RRIRYRPPRLPRPRPRPCYVPRP | -0.0553 |
| RRIRQRPPRLPRPRPRPAHKPRP | -0.0849 |
| RRIRCRPPRLPRPRPRPFECPRP | -0.365 |
| RRIRNRPPRLPRPRPRPTPNPRP | 0.185 |
| RRIRLRPPRLPRPRPRPMEQPRP | 0.168 |
| RRIRWRPPRLPRPRPRPKLGPRP | 0.0872 |
| RRIRFRPPRLPRPRPRPSCVPRP | -0.443 |
| RRIRPRPPRLPRPRPRPSDIPRP | -0.417 |
| RRIRNRPPRLPRPRPRPACWPRP | 0.449 |
| RRIRDRPPRLPRPRPRPEGFPRP | 0.638 |
| RRIRGRPPRLPRPRPRPNAIPRP | 0.668 |
| RRIRKRPPRLPRPRPRPVTQPRP | 0.169 |
| RRIRTRPPRLPRPRPRPKYQPRP | -0.68 |
| RRIRCRPPRLPRPRPRPNIAPRP | -0.275 |
| RRIRWRPPRLPRPRPRPTEMPRP | -0.00675 |
| RRIRLRPPRLPRPRPRPISMPRP | -0.801 |
| RRIRIRPPRLPRPRPRPPLHPRP | 0.0232 |

| Sequence | shrunken log2 fold change |
| --- | --- |
| RRIRARPPRLPRPRPRPQAYPRP | -0.0327 |
| RRIRNRPPRLPRPRPRPSEPPRP | -0.0146 |
| RRIRKRPPRLPRPRPRPPKYPRP | -0.0749 |
| RRIRKRPPRLPRPRPRPTRCPRP | 0.876 |
| RRIRMRPPRLPRPRPRPEVWPRP | 1.13 |
| RRIRDRPPRLPRPRPRPANAPRP | -0.00277 |
| RRIRERPPRLPRPRPRPGWPPRP | 0.398 |
| RRIRRRPPRLPRPRPRPKEYPRP | -0.0535 |
| RRIRERPPRLPRPRPRPMNGPRP | -0.0134 |
| RRIRNRPPRLPRPRPRPDDQPRP | 0.0463 |
| RRIRNRPPRLPRPRPRPLIVPRP | -0.332 |
| RRIRMRPPRLPRPRPRPDIAPRP | 0.0562 |
| RRIRVRPPRLPRPRPRPKTMPRP | 0.196 |
| RRIRGRPPRLPRPRPRPNWIPRP | -0.034 |
| RRIRARPPRLPRPRPRPIFGPRP | 0.0662 |
| RRIRQRPPRLPRPRPRPTHHPRP | 0.0945 |
| RRIRSRPPRLPRPRPRPGRAPRP | 1.02 |
| RRIRQRPPRLPRPRPRPDMAPRP | 0.0464 |
| RRIRGRPPRLPRPRPRPYKIPRP | -0.618 |
| RRIRWRPPRLPRPRPRPQPVPRP | 0.135 |
| RRIRARPPRLPRPRPRPEFCPRP | 0.83 |
| RRIRGRPPRLPRPRPRPAWFPRP | 0.652 |
| RRIRIRPPRLPRPRPRPMTRPRP | -0.0885 |
| RRIRPRPPRLPRPRPRPHYFPRP | -0.335 |
| RRIRPRPPRLPRPRPRPGHMPRP | -0.238 |

| Sequence | shrunken log2 fold change |
| --- | --- |
| RRIRERPPRLPRPRPRPLHDPRP | 0.0501 |
| RRIRRRPPRLPRPRPRPEWAPRP | 0.437 |
| RRIRTRPPRLPRPRPRPAACPRP | 0.0816 |
| RRIRVRPPRLPRPRPRPDWNPRP | -0.343 |
| RRIRSRPPRLPRPRPRPCRMPRP | -0.102 |
| RRIRVRPPRLPRPRPRPCHYPRP | -0.0563 |
| RRIRWRPPRLPRPRPRPNTRPRP | 0.15 |
| RRIRCRPPRLPRPRPRPFEHPRP | -0.792 |
| RRIRWRPPRLPRPRPRPETCPRP | 0.16 |
| RRIRTRPPRLPRPRPRPATFPRP | -0.129 |
| RRIRLRPPRLPRPRPRPVLAPRP | 0.104 |
| RRIRARPPRLPRPRPRPTALPRP | 0.513 |
| RRIRERPPRLPRPRPRPARAPRP | 0.522 |
| RRIRQRPPRLPRPRPRPGTCPRP | -0.266 |
| RRIRMRPPRLPRPRPRPKRRPRP | 1.02 |
| RRIRRRPPRLPRPRPRPPFAPRP | 0.739 |
| RRIRLRPPRLPRPRPRPGYQPRP | -0.133 |
| RRIRHRPPRLPRPRPRPPDKPRP | -0.112 |
| RRIRRRPPRLPRPRPRPLLHPRP | 0.295 |
| RRIRKRPPRLPRPRPRPTDTPRP | 0.261 |
| RRIRWRPPRLPRPRPRPMGRPRP | -0.012 |
| RRIRGRPPRLPRPRPRPVVSPRP | 0.62 |
| RRIRSRPPRLPRPRPRPTLDPRP | 0.47 |
| RRIRKRPPRLPRPRPRPRKEPRP | 0.015 |
| RRIRIRPPRLPRPRPRPNYKPRP | -0.911 |
